Measurements as given in patent publication US20130171059A1 (AbbVie / Abbott, published 2013).

B1: AB213 (antibody, V domains shown)
VH: QVQLKESGPGLVAPSQSLSITCTVSGFSLTDYGVNWVRQPPGKGLEWLGMIWGDGSTDYDSTLKSRLSISKDNSKSQIFLKMNSLQTDDTARYYCAREWHHGPVAYWGQGTLVTVSA
VL: DIVMTQSHKFMSTTVGDRVSITCKASQAVSSAVAWYQQKPGQSPKLLIYWASTRHTGVPDRFTGSGSVTDFTLTIHNLQAEDLALYYCQQHYSTPFTFGSGTKLEIKR
notes: Parent antibody
B2: AB217 (antibody, V domains shown)
VH: QVQLVESGGGVVQPGRSLRLSCAASGFTFSSYDMHWVRQAPGKGLEWVAVIWSDGSIKYYADSVKGRFTISRDNSKNTLYLQMNSLRAEDTAVYYCAREVESAMGGFYYNGMDVWGQGTTVTVSS
VL: DIQMTQSPSSLSASVGDRVTITCRASQGIRIDLGWYQQKPGKAPKRLIYAASTLQSGVPSRFSGSGSGTEFIFTISSLQPEDFASYYCLQHKSYPLTFGGGTKVEIKR
notes: Parent antibody
B3: DVD1993 (bispecific antibody)
DVD-H: DIQMTQSPSSLSASVGDRVTITCRASQSISNNLNWYQQKPGKAPKLLIYYTSRFHSGVPSRFSGSGSGTDFTFTISSLQPEDIATYYCQQEHTLPYTFGQGTKLEIKRTVAAPEVQLVESGGGLIQPGGSLRLSCAASGFTVSRNYMSWVRQAPGKGLEWVSVIYSGDRTYYADSVKGRFTISRDNSKNTLYLQMNSLRAEDTAVYYCARGEGGFDYWGQGTLVTVSS
DVD-L: QVQLQESGPGLVKPSETLSLTCTVSGFSLIGYDLNWIRQPPGKGLEWIGIIWGDGTTDYNSAVKSRVTISKDTSKNQFSLKLSSVTAADTAVYYCARGGYWYATSYYFDYWGQGTLVTVSSASTKGPEIVMTQSPATLSVSPGERATLSCRASQSVSSNLAWYQQKPGQAPRLLIHGASIRATGLPARFSGSGSGTEFTLTISSLQSEDFAVYYCQQYNYWWTFGQGTKVEIK
notes: VH/VL crossover DVD-Ig; also called DVD1993H + DVD1993L; copies: 2 + 2
B4: DVD1959 (bispecific antibody, not shown: a dimerising Fc or GST)
heavy: DVQMIQSPSSLSASLGDIVTMTCQASQGTSINLNWFQQKPGKAPKLLIYGSSNLEDGVPSRFSGSRYGTDFTLTISSLEDEDLATYFCLQHSYLPYTFGGGTKLEIKRTVAAPQVQLKESGPGLVAPSQSLSITCTVSGFSLTDYGVNWVRQPPGKGLEWLGMIWGDGSTDYDSTLKSRLSISKDNSKSQIFLKMNSLQTDDTARYYCAREWHHGPVAYWGQGTLVTVSA
light: EVQLQQSGPELVTPGASVKISCKASGYTFTDHYMSWVKQSHGKSLEWIGDINPYSGETTYNQKFKGTATLTVDKSSSIAYMEIRGLTSEDSAVYYCARDDYDASPFAYWGQGTLVTVSAASTKGPDIVMTQSHKFMSTTVGDRVSITCKASQAVSSAVAWYQQKPGQSPKLLIYWASTRHTGVPDRFTGSGSVTDFTLTIHNLQAEDLALYYCQQHYSTPFTFGSGTKLEIKR
B5: DVD1983 (bispecific antibody, not shown: a dimerising Fc or GST)
heavy: DVQMIQSPSSLSASLGDIVTMTCQASQGTSINLNWFQQKPGKAPKLLIYGSSNLEDGVPSRFSGSRYGTDFTLTISSLEDEDLATYFCLQHSYLPYTFGGGTKLEIKRTVAAPQVQLVESGGGVVQPGRSLRLSCAASGFTFSSYDMHWVRQAPGKGLEWVAVIWSDGSIKYYADSVKGRFTISRDNSKNTLYLQMNSLRAEDTAVYYCAREVESAMGGFYYNGMDVWGQGTTVTVSS
light: EVQLQQSGPELVTPGASVKISCKASGYTFTDHYMSWVKQSHGKSLEWIGDINPYSGETTYNQKFKGTATLTVDKSSSIAYMEIRGLTSEDSAVYYCARDDYDASPFAYWGQGTLVTVSAASTKGPDIQMTQSPSSLSASVGDRVTITCRASQGIRIDLGWYQQKPGKAPKRLIYAASTLQSGVPSRFSGSGSGTEFIFTISSLQPEDFASYYCLQHKSYPLTFGGGTKVEIKR
B6: DVD1985 (bispecific antibody)
DVD-H: DIQMTQSPSSLSASVGDRVTITCRASQSISNNLNWYQQKPGKAPKLLIYYTSRFHSGVPSRFSGSGSGTDFTFTISSLQPEDIATYYCQQEHTLPYTFGQGTKLEIKRTVAAPQVQLVESGGGVVQPGRSLRLSCAASGFTFSSYDMHWVRQAPGKGLEWVAVIWSDGSIKYYADSVKGRFTISRDNSKNTLYLQMNSLRAEDTAVYYCAREVESAMGGFYYNGMDVWGQGTTVTVSS
DVD-L: QVQLQESGPGLVKPSETLSLTCTVSGFSLIGYDLNWIRQPPGKGLEWIGIIWGDGTTDYNSAVKSRVTISKDTSKNQFSLKLSSVTAADTAVYYCARGGYWYATSYYFDYWGQGTLVTVSSASTKGPDIQMTQSPSSLSASVGDRVTITCRASQGIRIDLGWYQQKPGKAPKRLIYAASTLQSGVPSRFSGSGSGTEFIFTISSLQPEDFASYYCLQHKSYPLTFGGGTKVEIK
notes: VH/VL crossover DVD-Ig; also called DVD1985H + DVD1985L; copies: 2 + 2
B7: AB218 (antibody, V domains shown)
VH: EVQLVESGGGLIQPGGSLRLSCAASGFTVSRNYMSWVRQAPGKGLEWVSVIYSGDRTYYADSVKGRFTISRDNSKNTLYLQMNSLRAEDTAVYYCARGEGGFDYWGQGTLVTVSS
VL: EIVMTQSPATLSVSPGERATLSCRASQSVSSNLAWYQQKPGQAPRLLIHGASIRATGLPARFSGSGSGTEFTLTISSLQSEDFAVYYCQQYNYWWTFGQGTKVEIKR
notes: Parent antibody
B8: AB022 (antibody, V domains shown)
VH: EVQLQQSGPELVTPGASVKISCKASGYTFTDHYMSWVKQSHGKSLEWIGDINPYSGETTYNQKFKGTATLTVDKSSSIAYMEIRGLTSEDSAVYYCARDDYDASPFAYWGQGTLVTVSA
VL: DVQMIQSPSSLSASLGDIVTMTCQASQGTSINLNWFQQKPGKAPKLLIYGSSNLEDGVPSRFSGSRYGTDFTLTISSLEDEDLATYFCLQHSYLPYTFGGGTKLEIKR
notes: Parent antibody; also called SOST parent antibody
B9: DVD1982 (bispecific antibody, not shown: a dimerising Fc or GST)
heavy: DIQMTQSPSSLSASVGDRVTITCRASQGIRIDLGWYQQKPGKAPKRLIYAASTLQSGVPSRFSGSGSGTEFIFTISSLQPEDFASYYCLQHKSYPLTFGGGTKVEIKRTVAAPEVQLQQSGPELVTPGASVKISCKASGYTFTDHYMSWVKQSHGKSLEWIGDINPYSGETTYNQKFKGTATLTVDKSSSIAYMEIRGLTSEDSAVYYCARDDYDASPFAYWGQGTLVTVSA
light: QVQLVESGGGVVQPGRSLRLSCAASGFTFSSYDMHWVRQAPGKGLEWVAVIWSDGSIKYYADSVKGRFTISRDNSKNTLYLQMNSLRAEDTAVYYCAREVESAMGGFYYNGMDVWGQGTTVTVSSASTKGPDVQMIQSPSSLSASLGDIVTMTCQASQGTSINLNWFQQKPGKAPKLLIYGSSNLEDGVPSRFSGSRYGTDFTLTISSLEDEDLATYFCLQHSYLPYTFGGGTKLEIKR

Experiments:
[1] = molecular target: T1, Recombinant Human TNF-α/TNFSF1A (human, UniProt P01375 77-233); test: cell-based or functional assay
[2] = molecular target: T1, Recombinant Human TNF-α/TNFSF1A; test: SPR (Biacore)
Method: (§1) The BIACORE assay (Biacore, Inc, Piscataway, N.J.) determined the affinity of antibodies or DVD-Ig proteins with kinetic measurements of on-rate and off-rate constants. Binding of antibodies or DVD-Ig proteins to a target antigen (for example, a purified recombinant target antigen) was determined by surface plasmon resonance-based measurements with a Biacore® 1000 or 3000 instrument (Biacore® AB, Uppsala, Sweden) using running HBS-EP (10 mM HEPES [pH 7.4], 150 mM NaCl, 3 mM EDTA, and 0.005% surfactant P20) at 25° C. All chemicals were obtained from Biacore® AB (Uppsala, Sweden) or otherwise from a different source as described in the text. For example, approximately 5000 RU of goat anti-mouse IgG, (Fcγ), fragment specific polyclonal antibody (Pierce Biotechnology Inc, Rockford, Ill.) diluted in 10 mM sodium acetate (pH 4.5) was directly immobilized across a CM5 research grade biosensor chip using a standard amine coupling kit according to manufacturer's instructions and procedures at 25 μg/ml. Unreacted moieties on the biosensor surface were blocked with ethanolamine. Modified carboxymethyl dextran surface in flowcell 2 and 4 was used as a reaction surface. Unmodified carboxymethyl dextran without goat anti-mouse IgG in flow cell 1 and 3 was used as the reference surface. For kinetic analysis, rate equations derived from the 1:1 Langmuir binding model were fitted simultaneously to association and dissociation phases of all eight injections (using global fit analysis) with the use of Biaevaluation 4.0.1 software. Purified antibodies or DVD-Ig proteins were diluted in HEPES-buffered saline for capture across goat anti-mouse IgG specific reaction surfaces. Antibodies or DVD-Ig proteins to be captured as a ligand (25 μg/ml) were injected over reaction matrices at a flow rate of 5 μl/minute. The association and dissociation rate constants, kₒₙ (M⁻¹s⁻¹) and koff (s⁻¹) were determined under a continuous flow rate of 25 μl/minute. Rate constants were derived by making kinetic binding measurements at different antigen concentrations ranging from 10-200 nM. The equilibrium dissociation constant (M) of the reaction between antibodies or DVD-Ig proteins and the target antigen was then calculated from the kinetic rate constants by the following formula: KD=koff/kₒₙ. Binding was recorded as a function of time and kinetic rate constants were calculated.

Recombinant Human β-NGF = molecular target: T2, Recombinant Human β-NGF (human, UniProt P01138 122-239, limits assumed); test: SPR (Biacore)
T2 construct: Bought reagent for Biacore; also called huNGF; NGF (Rinat)
Method: as §1

Recombinant Human SOST [3] = molecular target: T3, Recombinant Human SOST (human, UniProt Q9BQB4 24-213); test: cell-based or functional assay
T3 sequence (looked up): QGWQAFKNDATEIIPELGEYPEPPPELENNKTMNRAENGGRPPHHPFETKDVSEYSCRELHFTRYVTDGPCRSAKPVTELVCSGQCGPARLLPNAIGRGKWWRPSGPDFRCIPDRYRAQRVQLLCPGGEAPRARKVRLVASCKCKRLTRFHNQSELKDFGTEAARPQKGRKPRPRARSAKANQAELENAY

Recombinant Human SOST [4] = molecular target: T3, Recombinant Human SOST; test: SPR (Biacore)
Method: as §1

T1 sequence (P01375 77-233 limits assumed): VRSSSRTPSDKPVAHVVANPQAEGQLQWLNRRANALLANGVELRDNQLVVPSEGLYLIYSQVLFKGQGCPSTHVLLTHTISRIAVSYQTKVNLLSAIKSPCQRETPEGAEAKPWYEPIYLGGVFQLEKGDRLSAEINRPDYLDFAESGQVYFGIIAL
T2 sequence (P01138 122-239 limits assumed): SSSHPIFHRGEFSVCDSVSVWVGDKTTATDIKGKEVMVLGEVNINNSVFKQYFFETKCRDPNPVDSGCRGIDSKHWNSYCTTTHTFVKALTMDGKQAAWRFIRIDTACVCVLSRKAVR

Row | Binder | TNFα Neutralization Assay IC50 (L929 cells) [1] | Kd [2] | koff [2] | kon [2] | C-Terminal VD TNFα Neutralization Assay IC50 (L929 cells) [1] | further results
1 | B1 | 0.244 nM | 0.025 nM | 8.2e-05 s⁻¹ | 3.2e+06 M⁻¹ s⁻¹ | – | –
2 | B2 | 0.313 nM | 0.028 nM | 4.8e-05 s⁻¹ | 1.7e+06 M⁻¹ s⁻¹ | – | –
3 | B3 | – | 0.43 nM | 3.5e-05 s⁻¹ | 81000 M⁻¹ s⁻¹ | 2.08 nM | Kd (Recombinant Human β-NGF): 0.0047 nM; koff (Recombinant Human β-NGF): 1.5e-05 s⁻¹; kon (Recombinant Human β-NGF): 3.3e+06 M⁻¹ s⁻¹
4 | B4 | – | – | – | – | 1.52 nM | N-Terminal VD SOST Neutralization Assay IC50 (Wnt-1/luciferase HEK clone #14) (Recombinant Human SOST [3]): 54.2 nM
5 | B5 | – | – | – | – | 0.127 nM | N-Terminal VD SOST Neutralization Assay IC50 (Wnt-1/luciferase HEK clone #14) (Recombinant Human SOST [3]): > 360 nM
6 | B6 | – | 0.43 nM | 1.9e-05 s⁻¹ | 45000 M⁻¹ s⁻¹ | 4.51 nM | Kd (Recombinant Human β-NGF): 0.012 nM; koff (Recombinant Human β-NGF): 3.7e-05 s⁻¹; kon (Recombinant Human β-NGF): 3.1e+06 M⁻¹ s⁻¹
7 | B7 | 0.179 nM | 0.041 nM | 7.3e-05 s⁻¹ | 1.8e+06 M⁻¹ s⁻¹ | – | –
8 | B8 | – | – | – | – | – | SOST Neutralization Assay IC50 (Wnt-1/luciferase HEK clone #14) (Recombinant Human SOST [3]): 34.8 nM; Kd (Recombinant Human SOST [4]): 0.018 nM; koff (Recombinant Human SOST [4]): 0.00038 s⁻¹; kon (Recombinant Human SOST [4]): 2.1e+07 M⁻¹ s⁻¹
9 | B9 | – | – | – | – | – | N-Terminal VD TNFa Neutralization Assay IC50 (L929 cells) [1]: 0.017 nM; C-Terminal VD SOST Neutralization Assay IC50 (Wnt-1/luciferase HEK clone #14) (Recombinant Human SOST [3]): > 100 nM
